One block for each binder: values may come before it.
Columns and labels:
[1] = target: T1, extracellular domain of human CD70 (SEQ ID NO: 89), hCD70-Fc-trimer, ACRO Biosystems (human, UniProt P32970 52-193, chemically biotinylated where the biotinylated form was used); assay: crude extract HTRF, 2 nM biotinylated hCD70
T1 construct: also called human CD70-Fc-trimer; Bio.CD70
T1 sequence: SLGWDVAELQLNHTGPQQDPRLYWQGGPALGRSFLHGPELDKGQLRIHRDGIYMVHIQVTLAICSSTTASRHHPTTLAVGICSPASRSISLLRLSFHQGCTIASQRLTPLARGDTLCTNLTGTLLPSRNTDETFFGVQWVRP
Source text: Individual selected ankyrin repeat proteins specifically binding to hCD70 in solution were identified by a Homogeneous Time Resolved Fluorescence (HTRF) assay using crude extracts of ankyrin repeat protein-expressing Escherichia coli cells using standard protocols. Ankyrin repeat protein clones selected by ribosome display were cloned into derivatives of the pQE30 (Qiagen) expression vector (pMPDV25), transformed into E. coli XL1-Blue (Stratagene), plated on LB-agar (containing 1% glucose and 50 μg/ml ampicillin) and then incubated overnight at 37° C. Single colonies were picked into a 96 well plate (each clone in a single well) containing 160 μl growth medium (TB containing 1% glucose and 50 μg/ml ampicillin) and incubated overnight at 37° C., shaking at 800 rpm. […]
The extract of each lysed clone was applied as a 1:2000 dilution (final concentration) in PBSTB (PBS supplemented with 0.1% Tween 20® and 0.2% (w/v) BSA, pH 7.4) together with 2 nM (final concentration) biotinylated hCD70, 1:400 (final concentration) of anti-strep-Tb HTRF antibody-FRET donor conjugate (Cisbio) and 1:400 (final concentration) of anti-6His-D2 antibody FRET acceptor conjugate (Cisbio) to a well of 384 well plate and incubated for 60 minutes at RT. The HTRF was read-out on a Tecan M1000 using a 340 nm excitation wavelength and a 665±10 nm emission filter. […]

[2] = target: T2, biotinylated extracellular domains of human CD123 (uniprot ID 26951), Fc format (human, UniProt P26951 19-305, biotinylated); assay: crude extract HTRF, 6 nM biotinylated CD123
T2 construct: extracellular domain
T2 sequence (looked up): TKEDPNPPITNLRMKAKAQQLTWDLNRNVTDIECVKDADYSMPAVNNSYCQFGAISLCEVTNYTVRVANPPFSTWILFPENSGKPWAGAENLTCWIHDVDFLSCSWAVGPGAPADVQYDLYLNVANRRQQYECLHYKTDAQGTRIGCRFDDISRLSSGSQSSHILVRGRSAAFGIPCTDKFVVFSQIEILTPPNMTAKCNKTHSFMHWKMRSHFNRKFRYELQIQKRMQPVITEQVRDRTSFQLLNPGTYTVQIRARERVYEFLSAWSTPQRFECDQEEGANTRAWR
Source text: Individual selected ankyrin repeat proteins specifically binding to hCD123 in solution were identified by a Homogeneous Time Resolved Fluorescence (HTRF) assay using crude extracts of ankyrin repeat protein-expressing Escherichia coli cells using standard protocols. Ankyrin repeat protein clones selected by ribosome display were cloned into derivatives of the pQE30 (Qiagen) expression vector (pMPDV045), which contains a C-terminal CD3 binding designed ankyrin repeat protein followed by a Flag tag, transformed into E. coli XL1-Blue (Stratagene), plated on LB-agar (containing 1% glucose and 50 μg/ml ampicillin) and then incubated overnight at 37° C. […]
The extract of each lysed clone was applied as a 1:500 dilution (final concentration) in PBSTB (PBS supplemented with 0.1% Tween 20® and 0.2% (w/v) BSA, pH 7.4) together with 6 nM (final concentration) biotinylated human or cyno CD123, 1:300 (final concentration) of anti-6His-D2 HTRF antibody-FRET acceptor conjugate (Cisbio) and 1:300 (final concentration) of anti-strep-Tb antibody FRET donor conjugate (Cisbio) to a well of 384 well plate and incubated for 120 minutes at RT. The HTRF was read-out on a Tecan M1000 using a 340 nm excitation wavelength and a 665±10 nm emission filter.

binding result [2]: binds
B3: DARPin® protein #63 (designed binder)
chain: DLGKKLLQAARAGQLDEVRELLKAGADVNAKDQYGRTPLHLAAIKGHLEIVEVLLKAGADVNAKDSLGYTPLHLAAVEGPLEIVEVLLKAGADVNAKDAYGQTPLHIAAAWGHLEIVEVLLKAVADVNAQDKSGKTPADLAARAGHQDIAEVLQKAA
notes: CD123-specific domain; screened as crude extract

binding result [1]: binds
B4: DARPin® protein #69 (designed binder)
chain: DLGYKLLQAAYDGQDDEVRILLAAGADVNAKDSRGQTPLHYAASIGHLEIVEVLLKAGADVNAKDDHGWTPLHLAAWSGHLEIVEVLLKAGADVNAQDQEGTTPADLAAVQSHEDIAEVLQKAA
notes: CD70-specific domain; screened as crude extract (vector pMPDV25)

More lines, now with the values behind:

B1: DARPin® protein #68 (designed binder)
chain: DLGKKLLQAARAGQLDEVRELLKAGADVNAKDQAGLTPLHIAAATGHLEIVEVLLKAGADVNAKDFSGLTPLHLAAFEGHLEIVEVLLKAGADVNAKDQHGQTPLHLAAWTGHLEIVEVLLKAGADVNAQDKSGKTPADLAARAGHQDIAEVLQKAA
notes: as for B4
binding result [1]: binds

B2: DARPin® protein #64 (designed binder)
chain: DLGWKLLDAAEIGQDDEVRILLAAGADVNAKDKQGITPLHIAAAHGHLEIVEVLLKAGADVNAKDEIGRTPLHLAAFKGHLEIVEVLLKAGADVNAQDIIGETPADLAAVRGHEDIAEVLQKAA
notes: as for B3
binding result [2]: binds
